The supplement of paper PMC7125110
± gives the standard error. Fewer inactive variants are shown than the library holds.

B1: glmS ribozyme (parent)
chain: AUAAAAGCGCCAGAACUACAGAAAUGUAGUUGACGAGGAGGAGGUUUAUCGAAUUUUCGGCGGAUGCCUCCAAA

Variants of: B1
Assay: self-cleavage kobs at 2500 uM GlcN6P; higher = faster cleavage; RNA array
Conditions: with glucosamine-6-phosphate
How it was run: (§1)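 Tiles bearing barcoded ribozyme variants, transcribed in situ by E. coli RNA polymerase on sequenced MiSeq chips, were imaged over ~14 h at 37 °C using a hybridised Cy3 probe. Glucosamine-6-phosphate was supplied at 40 μM to 10 mM in HEPES/KCl/Mg(OAc)2 buffer. kobs came from one- or two-exponential decay fits to normalised per-tile medians, and weighted Michaelis–Menten fits then provided kcat and KM.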

Variant | self-cleavage kobs at 2500 uM GlcN6P [s⁻¹]
G35U A36U G43A C50G U69G | < 1e-05
U31A G38U G51A | < 1e-05
C34U U54G G63U | < 1e-05
G29U U45C U46G | 6.29e-05 ± 2.8e-05
U30A U47C | 0.000476 ± 9.7e-05
C16G C50U A53C C68G | 0.000113 ± 4.6e-05
G35U G66U C70U | < 1e-05
C16G U49G U55A | 5.61e-05 ± 2.1e-05
C34A G37U A39U U57C C67A | < 1e-05
G26U G32C G35U G38U G63C | < 1e-05
A24C G29U A64G | 0.000837 ± 0.00014
G32U G41A C58U | 9.05e-05 ± 2.6e-05
A33U G37C C70G | < 1e-05
C16A G37U G41A | < 1e-05
G35C U49G G62U C71G | < 1e-05
A36U G63A | < 1e-05
C16A G37U C61G U69G | 5.77e-05 ± 1.7e-05
G29A G35U A42G A52U | < 1e-05
G35A C50A U55C G62A A64U | < 1e-05
U31G A39U A64C | 6.17e-05 ± 2.3e-05
G37C A42C A48C A64U | < 1e-05
U31G G32C G66A | 0.000109 ± 2.1e-05
G29C U30G A39G | 0.00224 ± 0.00066

Variant | self-cleavage kobs at 2500 uM GlcN6P [s⁻¹]
C16G A39G C71U | 0.0054 ± 0.0016
U30G G63C A64U | < 1e-05
C34U G51U A64C | < 1e-05
G32U A33U G41U | < 1e-05
C34U C50A U69C | 0.000135 ± 6.7e-05
G29U U47G C50G G63C | 0.000136 ± 5.4e-05
G29A G35U G41A | < 1e-05
C19A C34U U45A A48U | < 1e-05
A33U G51U C67U | < 1e-05
C34U U47G G51U | < 1e-05
C16U A36U G38C G60C | < 1e-05
G29A U31G U54G | 6.58e-05 ± 3.2e-05
G32A A33U G51U | < 1e-05
U30A A42C U45G U65G C70G | 0.000761 ± 0.00026
G32C A42G G59U | < 1e-05
U30A U46G A53U | 0.000335 ± 9.7e-05
G32C A36C A39U U69G | < 1e-05
G32U U57A C61A | < 1e-05
C16G U30G A39U | 4.31e-05 ± 2e-05
C34U G35A G44C U54A U65G | < 1e-05
A36G G41A C67U | < 1e-05
C34A U69A | < 1e-05
G37C C50U U69G | 6.01e-05 ± 2.6e-05

Variant | self-cleavage kobs at 2500 uM GlcN6P [s⁻¹]
G29C C34A U47A U56C | < 1e-05
G32U A64G G66A | 0.000236 ± 5.9e-05
G32C A53C U65C | < 1e-05
A33G G44A U49G | < 1e-05
A33G G44U G63U | < 1e-05
G32U G41C G59A | < 1e-05
C16U G40A U69C | 3.52e-05 ± 1.7e-05
U30C U55A U69G | 7.73e-05 ± 1.4e-05
C16G A52G U55G | 9.56e-05 ± 4.1e-05
C16U A39G A48C | 0.000168 ± 5e-05
A36C G37A G38A U56A C68G | 6.64e-05 ± 2.3e-05
A33C G51A A53U | < 1e-05
C34U U45G | < 1e-05
G35C U47G C50G G66A | 7.72e-05 ± 2.7e-05
A33G A36G A52U | < 1e-05
C34A G59A C70A | < 1e-05
U30G U31C U47C G66A | 2.71e-05 ± 1.2e-05
U30A C50A C68U | 4.96e-05 ± 2.3e-05
G35C U46G U56A | < 1e-05
A33C G37U U57A G59U | < 1e-05
G32A A39U U56A | 5.98e-05 ± 1.5e-05
G29U G44U G59U C67A | < 1e-05
C34U G35A | < 1e-05

Variant | self-cleavage kobs at 2500 uM GlcN6P [s⁻¹]
U30C G35C U49A | < 1e-05
A36G C50G C67G | 0.000124 ± 5.6e-05
U30G G38A U46G | < 1e-05
G29U C34U U55G C67U | < 1e-05
U31C G35A C71U | < 1e-05
G29U G32C U56A | 7.28e-05 ± 1.4e-05
A33C G41C C67G | < 1e-05
U30G G41C C58U | < 1e-05
G37A G44C | 4.54e-05 ± 1.3e-05
A33C C68G C70U | < 1e-05
A36U C58G C70U | 6.88e-05 ± 2.4e-05
A36U U55C C70G | < 1e-05
A33G G35A G44U G59C C70U | < 1e-05
C16G G43A A48U | < 1e-05
C16G U30A A42C U69G | 0.000262 ± 6.8e-05
G37A U49G C70U | 7.97e-05 ± 2e-05
A36U A39G C67G | < 1e-05
C16U C50G U55C | 7.17e-05 ± 2.1e-05
G35A A52U A53G C70U | < 1e-05
U31C C34U U69C | < 1e-05
U30C U47A C70A | 8.14e-05 ± 3.8e-05
G32U U55C | 0.000307 ± 7.3e-05
G32U G37C G43U | < 1e-05

Variant | self-cleavage kobs at 2500 uM GlcN6P [s⁻¹]
G32A U47A C70G | 4.84e-05 ± 2.3e-05
G32A G35C G44C U56G | < 1e-05
G32A C34G C71U | < 1e-05
A33C C34A G62U C71U | < 1e-05
C34U C50U | < 1e-05
A36C G59U G60U C70G | < 1e-05
C16U U47A C58G | 2.28e-05 ± 1.1e-05
G32U U56G G66U | 6.54e-05 ± 1.6e-05
C16U A53U A64U | 4.5e-05 ± 2.3e-05
G29U G37A G38C G60U | < 1e-05
A33U G43U U65C | < 1e-05
G37A G38C U56G C70G | 6.06e-05 ± 1.5e-05
U31G U56C G62A | < 1e-05
U31A A52U | 2.52e-05 ± 1.1e-05
G29U G40A U65A | 3.42e-05 ± 1.6e-05
U31G U56A G66U | 7.04e-05 ± 1.3e-05
C16A G43A C58U | < 1e-05
G32C G37A A42C A53C | < 1e-05
A33G A52G G62A | < 1e-05
G32U G66A C70A | 0.00086 ± 0.00036
A36C A39U G40C A42G U46C U69G | < 1e-05
G37C U47C C58A | < 1e-05
U30C G41U A42C | < 1e-05

Variant | self-cleavage kobs at 2500 uM GlcN6P [s⁻¹]
C34U G37A A39C | < 1e-05
U31C G41C U45A A52G C61G | < 1e-05
C34U C58U U65A | < 1e-05
G32C U65G C68G | < 1e-05
G29U U47G U54G | 0.000533 ± 0.00012
G37C A42C U69A | < 1e-05
C34A G38U C50G | 9.01e-05 ± 3e-05
U31C U56G C67A | 6.88e-05 ± 1.8e-05
C34U A39C C68U | < 1e-05
U31G C58A C67G | 6.38e-05 ± 2e-05
U31G G38U A42U C67U | < 1e-05
G37C G38U G51A U54G | < 1e-05
G37C U55A A64G | 4.29e-05 ± 1.2e-05
G32U C34U A42G U46C A64C | < 1e-05
U30C G44U U45G U69G | < 1e-05
G37A A39G C71G | 0.000523 ± 0.00013
C16U G41A C67U | < 1e-05
A33C G51A U54C | < 1e-05
C34A G37A G43U | < 1e-05
G32C A33C U49G | < 1e-05
U31A G35C A39U C67A C70U | < 1e-05
G37A G40A U56A | 0.000109 ± 1.8e-05
G37A G40A U56G | 5.62e-05 ± 1.8e-05

Variant | self-cleavage kobs at 2500 uM GlcN6P [s⁻¹]
G32C U47A A64G C68A | < 1e-05
C34A U49G | < 1e-05
A33C A39G C70A | < 1e-05
U31C G38A U47G G51C | < 1e-05
G32C G35C U56C | < 1e-05
G37U A42C U47A A48U U56A | < 1e-05
A36G U49G U55G | < 1e-05
A33G A53U G60U C71G | < 1e-05
G29U A36G A42G G43C G62U U65C U69C | < 1e-05
C34A A42U U47A | < 1e-05
G29U G32A A53C | 0.000152 ± 3e-05
G29C A64G G66U | 4.43e-05 ± 1.8e-05
G32C A36G U47C | < 1e-05
G35U A36G U45C U65G | < 1e-05
U30G G35A G43C | < 1e-05
A33C C50U U56C | < 1e-05
C34U G40A G41C A48C A52G | < 1e-05
G32U C50U | < 1e-05
G35C A39U G59A | < 1e-05
C34A G35C A39G G44U C67A C71G | < 1e-05
U31G A36U C50A C71G | 0.000265 ± 0.00012

Variants of: B1
Assay: self-cleavage kobs at 10000 uM GlcN6P; higher = faster cleavage; RNA array
Conditions: with glucosamine-6-phosphate
How it was run: as §1

Variant | self-cleavage kobs at 10000 uM GlcN6P [s⁻¹]
C34U U54G G63U | < 1e-05
U30A U47C | 0.000396 ± 9.1e-05
G35A C50A U55C G62A A64U | < 1e-05
U31G A39U A64C | 4.91e-05 ± 1.3e-05
U30G G63C A64U | < 1e-05
G32C A36C A39U U69G | < 1e-05
C16G U30G A39U | 0.000103 ± 2.8e-05
C16U A39G A48C | 0.000325 ± 9.5e-05
C34U U45G | < 1e-05
A33G A36G A52U | < 1e-05
C34U G35A | < 1e-05
G32U U55C | 0.000584 ± 6.9e-05
U31A A52U | 8.67e-05 ± 1.5e-05
G37C U55A A64G | 6.99e-05 ± 1.4e-05
G29U G32A A53C | 0.000364 ± 0.0001
G35U A36G U45C U65G | < 1e-05
G32U C50U | < 1e-05
